Measured values as given in the DeepSol protein solubility set.

Test: soluble on expression in E. coli; label from the status in PepcDB or PDB records

Sequence	soluble on expression in E. coli
MKRKRIDIITLGCSKNLVDSEQLMRQLEEAGYSVTHDTENPEGEIAVINTCGFIGDAKEESINMILEFAERKEEGDLKKLFVMGCLSERYLQELAIEIPQVDKFYGKFNWKELLQDLGKTYHEELYIERTLTTPKHYAYLKISEGCDRKCSYCAIPIITGRHISKSMEEILDEVRYLVSQGVKEFQVIAQELTYYGVDLYKKQMLPELIERISEIPGVEWIRLHYAYPAHFPTDLFRVMRERDNVCKYMDIALQHISDNMLKLMRRQVSKEDTYKLIEQFRKEVPGIHLRTTLMVGHPGETEEDFEELKEFVRKARFDRMGAFAYSEEEGTYAAQQYEDSIPQEVKQARLDELMDIQQGISAELSAAKIGQQMKVIIDRIEGDYYIGRTEFDSPEVDPEVLISVSREELEVGQFYQVEVTDADDFDLYAKILNKYELEHHHHHH	soluble
MAHHHHHHMGTLEAQTQGPGSMLYIIGLGLYDEKDITVRGLEAVKSCDLVFLEHYTAILQCDVAKLEEFYGKKVIIGDRDLVETEADQILEPAKTKNVALLVVGDVYGATTHSDIFVRCQKMGIEVKVIHNASIMNAIGCSGLQLYRFGQTVSVCFWSEHWRPSSYYPKIKINRDNNMHTLVLLDIKVKERSEESIIKGRDIFEPPRYMTINQCIEQLLEVEKEQHLGVYDEDTMVVGMARVACADQKIVYGKMKDLLHYDFGAPMHCLLIPAPQVDDPELDQLEYFKYKPE	soluble
MGVHSFWDIAGPTARPVRLESLEDKRMAVDASIWIYQFLKAVRDQEGNAVKNSHITGFFRRICKLLYFGIRPVFVFDGGVPVLKRETIRQRKERRQGKRESAKSTARKL	not soluble
MAKPLMAKATAVWLVDNTTISFKQIADFVGMHELEIQGIADGDVAAGVKGFDPIANNQLTQEEIDKAEQNPLHKLKLKFNPAAAGEEKRRGPRYTPLSKRQDRPNAILWLVKFHPELSDGQIAKLVGTTKPTIQSIRERTHWNISNMQPIDPVALGLCRQSELDSVVQKAAAKKAAEGGVMSDDERRKLVSTEQSLGMDTGPRIPTAIEGLENFSLSEPISTSDDDEEDHRSIADADSFFNLPKGGTDDEDEDDDPRYLEHHHHHH	soluble
GMVEVSQFKDAMAQLASAVHIVTTSGETGQHGFTASAVCSVTDSPPTLLVCINSNARAYEHFVKNRVLMVNTLTAEQSSLSNIFASPLSQEERFSNASWTTLTTGSPMLQDALINFDCEITEIKHVGTHDILICKIVDIHQSNAKNALVYRNRVYHSV	soluble
MSKFWSPFVKDLVPYVPGEQPKLSRLVKLNTNENPYGPSPQALAAMQAELNDDLRLYPDPNGERLKQAVAAHYGVQANQVFVGNGSDEVLAHIFHGLFQHDLPLLFPDVTYSFYPVYCGLYGIAHEKIALDERFRIRVEDYARPNGGIIFPNPNAPTGCLLPLDAIEAMLKASPDSVVVVDEAYVDFGGESAIALVDRYPNLLVTQTLSKSRSLAGLRVGLAVGHADLVEALERIKNSFNSYPLDRLAIAGAAAAFEDDAYFRRTCQAVIDSREALSASLQALGFEVLPSAANFVFARHPRHDAGQIASTLREQGVIVRHFKQARIDQFLRITIGSPEQNQALLDALHFLK	not soluble
MSEKQINNFSLISRLFGNLFYRFPTDKVLADAFVWLQQEGLSQVWALDTDKESELALNSLQVKIDLNLLNEEYQKLFATNGKVMTAISAYGIDVEEFVNFRLVRNMPEVESADHFALLLLTASWLEDNSDSLVAQQEFFETFLLPCAAKFLTQVENQATLPFYRALALLTREILATMADELEEE	soluble
STVSEAYSPPLFSIAPMMGWTDNHYRTLARLITKHAWLYTEMLAAETIVYQEDNLDSFLAFSPDQHPIVLQIGGRNLENLAKATRLANAYAYDEINFNCGCPSPKVSGRGCFGALLMLDPKFVGEAMSVIAANTNAAVTVKCRIGVDDHDSYNELCDFIHIVSSLSPTKHFIIHSRKALLSGLSPSDNRRIPPLKCVQKVFLCPFA	soluble
MYSVLIPVDRDEARASNQASYVSQLPDATDTVEATVLYVVPPDEFADAAEVAFDDIDAAVQAANQLEAAGVSVTRMVDDGGVAQQIVRTATELDSDEIVVGGRKRSGVSKVLLGSTAQDVLLSAERPVTITGESVVL	not soluble
